How the values were obtained:
Experiment in all cases: EMSA
[1] = tested on: T1, MsrR:C62S C62S (Corynebacterium glutamicum), ORF:1371e9c5; settings: 10 mM Tris-HCl pH 7.4 (Fig 4 legend says pH 8.0 for the H2O2/DTT test), 5 mM MgCl2, 50 mM KCl, 5% glycerol, 0.1% NP40, 1 ug poly(dI:dC), 40 ng DNA in 20 ul …
T1 sequence: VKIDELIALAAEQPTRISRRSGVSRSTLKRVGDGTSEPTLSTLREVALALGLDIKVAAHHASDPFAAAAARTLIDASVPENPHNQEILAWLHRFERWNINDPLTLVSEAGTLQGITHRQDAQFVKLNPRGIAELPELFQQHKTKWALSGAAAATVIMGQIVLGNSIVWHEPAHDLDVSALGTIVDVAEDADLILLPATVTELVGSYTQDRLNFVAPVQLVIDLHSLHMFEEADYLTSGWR

[2] = tested on: MsrR (Corynebacterium glutamicum); settings: no oxidant; apparent KD; 10 mM Tris-HCl pH 7.4 (Fig 4 legend says pH 8.0 for the H2O2/DTT test), 5 mM MgCl2, 50 mM KCl, 5% glycerol, 0.1% NP40, 1 ug poly(dI:dC), 40 ng DNA in 20 ul …
[3] = tested on: MsrR:C62S (Corynebacterium glutamicum); settings: no H2O2; unit inferred, nM from context; apparent KD; 10 mM Tris-HCl pH 7.4 (Fig 4 legend says pH 8.0 for the H2O2/DTT test), 5 mM MgCl2, 50 mM KCl, 5% glycerol, 0.1% NP40, 1 ug poly(dI:dC), 40 ng DNA in 20 ul …

Row | Substance | Kd [1] [nM] | binding [1] | Kd [2] [nM] | Kd [3] [nM]
1 | GTGGACACGGGGTGTCTCCTAAAGATGGGGAGCAAAAACCCTCAAACTGCTGCTAAAAATACAGGATTGGCGCCCGTGACGCTACTGAAAAGGTGGAGGGGCGCGTCGAAAAGCGTTGGCCGGTGCCTGAGCGAAAAACCGTGATGATTAGCATGGTTTGTT (double strand) [PmsrR] | 23.1 | binds |  | 
2 | PmsrR |  |  | 17 | 23.1

Reference: publication PMC7532634
